Results from US10106589B2, “Compositions and methods for immunomodulation” (FUNDACIO INSTITUT D'INVESTIGACIO BIOMEDICA DE BELLVITGE …, priority 2011, dated 2018).

B1: C4BP α7β1: major C4BP isoform, 7 identical α-chains and 1 β-chain, purified from pooled human plasma (protein, UniProt P04003 49-597; P20851 18-252, looked up)
C4b-binding protein alpha …: NCGPPPTLSFAAPMDITLTETRFKTGTTLKYTCLPGYVRSHSTQTLTCNSDGEWVYNTFCIYKRCRHPGELRNGQVEIKTDLSFGSQIEFSCSEGFFLIGSTTSRCEVQDRGVGWSHPLPQCEIVKCKPPPDIRNGRHSGEENFYAYGFSVTYSCDPRFSLLGHASISCTVENETIGVWRPSPPTCEKITCRKPDVSHGEMVSGFGPIYNYKDTIVFKCQKGFVLRGSSVIHCDADSKWNPSPPACEPNSCINLPDIPHASWETYPRPTKEDVYVVGTVLRYRCHPGYKPTTDEPTTVICQKNLRWTPYQGCEALCCPEPKLNNGEITQHRKSRPANHCVYFYGDEISFSCHETSRFSAICQGDGTWSPRTPSCGDICNFPPKIAHGHYKQSSSYSFFKEEIIYECDKGYILVGQAKLSCSYSHWSAPAPQCKALCRKPELVNGRLSVDKDQYVEPENVTIQCDSGYGVVGPQSITCSGNRTWYPEVPKCEWETPEGCEQVLTGKRLMQCLPNPEDVKMALEVYKLSLEIEQLELQRDSARQSTLDKEL
C4b-binding protein beta chain: SDAEHCPELPPVDNSIFVAKEVEGQILGTYVCIKGYHLVGKKTLFCNASKEWDNTTTECRLGHCPDPVLVNGEFSSSGPVNVSDKITFMCNDHYILKGSNRSQCLEDHTWAPPFPICKSRDCDPPGNPVHGYFEGNNFTLGSTISYYCEDRYYLVGVQEQQCVDGEWSSALPVCKLIQEAPKPECEKALLAFQESKNLCEAMENFMQQLKESGMTMEELKYSLELKKAELKAKLL
B2: C4BP (β^−): C4BP isoforms lacking beta chain: C4BP (α7β0) or C4BP (α6β0) (protein, UniProt P04003 49-597, looked up)
C4b-binding protein alpha …: B1 C4b-binding protein alpha …

Columns and labels:
[1] = tested on: human Mo-DCs; assay: Quantitative RT-PCR of CCR7, IDO, BIC-1, SOD2 in Mo-DCs; type: cell-based; parameters: key to IDO / BIC-1: (−) negligible; (+) low; (++) moderate; (+++) high
Protocol: Mo-DCs (10^6/condition) were harvested at day 7 and the mRNA was extracted using the RNeasy RNA Isolation kit (Qiagen) and incubated with RNase-free DNase I (Ambion, Austin, Tex.) according to the manufacturer's protocol. A two-step real-time RT-PCR technique was used to determine the relative mRNA levels of human CCR7, BIC-1, IDO and SOD2. Reverse transcription reactions were performed with 500 ng of total RNA using the Omniscript RT kit (Qiagen). Quantification of mRNA levels was performed by real-time polymerase chain reaction (PCR) with the use of the LightCycler technology (Roche Molecular Biochemicals, Indianapolis, Ind.). The following primers were used: CCR7-f (5′-TGGGCATCTGGATACTAGC-3′) (SEQ ID NO:6), CCR7-r (5′-AAGAAAGGGTTGACGCAGC-3′) (SEQ ID NO:7); IDO-f (5′-[…]-3′) (SEQ ID NO:8); IDO-r (5′-[…]-3′) (SEQ ID NO:9); BIC-1-f (5′-[…]-3′) (SEQ ID NO:10), BIC-1-r (5′-[…]-3′) (SEQ ID NO:11); SOD2-f (5′-GACAAACCTCAGCCCTAAC-3′) (SEQ ID NO:12), SOD2-r (5′-[…]-3′) (SEQ ID NO:13), yielding products of 435, 227, 296 bp, and 248 bp, respectively. These gene-specific primer pairs were designed using Oligo 4.0 and Primer 3 software packages (MBI, Cascade, Colo.) and selected to prevent primer-dimer formation.
All samples were normalized with the use of the following primer set for the constitutively expressed human cyclophilin gene: CypA-f (5′-[…]-3′) (SEQ ID NO:14) and CypA-r (5′-CACCACATGCTTGCCATCC-3′) (SEQ ID NO:15) (Pluvinet R. et al., 2004, Blood. 104: 3642-3646). All primers were purchased from Bonsai Technologies (Copenhagen, Denmark).
PCR amplifications were performed in a 20 μl volume containing 2 μl ready-to-use reaction mix, 10×DNA Master SYBR Green I (Roche Molecular Biochemicals); MgCl2 (3 mM for CCR7; 4 mM for BIC-1 and SOD2, and 5 mM for IDO); 0.15 μM of each primer; 5% dimethyl sulfoxide (DMSO); and 75 ng cDNA as template. The amplification program used an initial denaturation at 95° C. for 10 min, followed by 45 cycles: 95° C. for 1 sec; 58° C. (CCR7 and SOD2)/60° C. (BIC-1 and IDO) for 5 sec; 72° C. for 10 sec.

[2] = tested on: human Mo-DCs; assay: Scanning electron microscopy of Mo-DC surface morphology; type: cell-based; parameters: key to Dendrite density and lenght: (−) negligible; (+) low; (++) moderate; (+++) high
Protocol: Monocytes were seeded on glass slides covered with either poly-L-lysine (25 μg/ml) or fibronectin (42 μg/ml), cultured for 5 days in complete RPMI medium supplemented with 800 U/ml GM-CSF, 500 U/ml IL-4, and the C4BP isoforms α7β1, α7β0, or Factor H (10 μg/ml), and further stimulated with LPS for 48 hours in the same medium. The resulting DCs were fixed in 1% paraformaldehyde and 1.25% glutaraldehyde in cacodylate buffer for 2 h. Finally, the cells were post-fixed in 1% OsO4, and dehydrated with graded series of ethanol followed by acetone. After dehydration the cells were dried in a critical-point dryer and coated with gold before observation by scanning electron microscopy (Zeiss DSM940A).

[3] = tested on: NSG immunodeficient mice; assay: Human xeno-graft-versus-host disease (xeno-GvHD) model; type: in vivo; conditions: co-transfer or late infusion of treated monocyte-derived DCs (5×10^5/mouse) with human PBMCs; versus PBMCs alone
Text: We assessed the in vivo tolerogenic or regulatory capacity of C4BP(β^−)-treated or Factor H-treated monocyte-derived DCs in a human xeno-graft-versus-host disease (xeno-GvHD) model (King et al. (2009) Clin. Exp. Immunol. 157: 104-118). Intravenous injection of human peripheral blood mononuclear cells (PBMCs; 10×10^6/mouse) induced xeno-GvHD in NSG immunodeficient mice (The Jackson Laboratory) (8-12 weeks of age) (median survival time 30-40 days).

[4] = tested on: allogeneic CD3+ T cells; assay: Mixed leukocyte reaction ([3H]-thymidine incorporation); type: cell-based, human; parameters: key to Alloproliferation (T CD3^+): (−) negligible; (+) low; (++) moderate; (+++) high
Protocol: CD3^+ T cells (10^5/well) and C4BP-treated (α7β1 and α7β0), or Factor H-treated, and LPS-activated Mo-DCs were seeded in a 96-well round-bottom plate at various DC:T cell ratios (1:40, 1:80 and 1:160) and cultured in X-VIVO 15 medium (Biowittaker, Walkersville, Md.) supplemented with 100 μg/ml of streptomycin, 100 IU/ml of penicillin and 2 mM L-glutamine (all from Invitrogen) plus 2% Human AB Serum. Allospecific proliferation was measured after 5 days of incubation. At day 4, the […] [^3H]-thymidine (1 μCi/well, Perkin Elmer, Boston, Mass.) was added, followed by incubation for another 16 h. Labeled cells were then harvested onto glass-fiber filters with a Filtermate Harvester (Packard, Meriden, Conn.), and the T cell proliferation rate was determined by the amount of [^3H]-thymidine incorporation, which was measured in a TopCount NXT counter (Packard). Results are reported as the mean cpm±SD of thymidine incorporation in quadruplicate culture wells.

[5] = tested on: human Mo-DCs; assay: Chemotaxis transwell assay towards CCL21; type: cell-based; parameters: key to Chemotaxis (CCL21): (−) negligible; (+) low; (++) moderate; (+++) high; conditions: for migration of LPS-matured Mo-DCs towards the chemokine CCL21: transwell, 2 h
Protocol: Mo-DCs differentiated and matured (LPS for 48 h) in presence of the C4BP isoforms α7β1, α7β0, or Factor H, were tested for migration toward the CCL21 chemokine using transwell assays. Briefly, the lower chambers of transwell plates (polycarbonate filters of 8.0 μm pore size; Costar, Corning, N.Y.) were filled with 400 μl of complete RPMI with or without CCL21 (200 ng/ml). A total of 1×10^5 DCs in 100 μl of complete RPMI were added into the upper chamber, and cells were incubated at 37° C. for 2 h. Cells migrated into the lower chambers were harvested and counted with a FACScalibur flow cytometer acquiring events for a fixed time period of 2 min using CellQuest software (Becton Dickinson). The migration assays for all stimulation conditions were performed in duplicate wells. Values are given as percentage of migrated cells relative to the untreated, mDCs (100%).

[6] = transcriptional profile, treated and LPS-induced DCs
[7] = functional assay, treated and LPS-induced DCs

Molecule | CCR7 transcript level ([1]; RT-qPCR, pretreated, LPS-matured Mo-DCs) | surface morphology of Mo-DCs ([2]; SEM after 48 h LPS maturation) | survival time [3] | allogeneic T cell proliferation ([4]; Mo-DCs pre-incubated and matured with LPS, DC:T 1:40, 1:80, 1:160, 5 days) | migration of LPS-matured Mo-DCs towards the chemokine CCL21 [5] | BIC-1 [1, 6] | IDO [1, 6] | Dendrite density and lenght ([2]; morphology, treated and LPS-induced DCs) | Alloproliferation (T CD3^+) [4, 7] | Chemotaxis (CCL21) [5, 7]
B1 | but not with C4BP α7β1, significantly down-regulated | analogous appearance than untreated Mo-DCs | no significant protection | maximal allogeneic T cell proliferation | maximal migration |  |  |  |  | 
B2 |  |  | significantly prolonged survival time |  | halted the migration | + | − | + | + | −
